Test results published in patent US20140099312A1 (Regeneron, published 2014).

Target: hPCSK9(D374Y)-mmh (human, UniProt Q8NBP7 31-692)
Assay: cell-based or functional assay

B1: H1M300N (antibody, V domains shown)
VH: EMQLVESGGGLVQPGGSLRLSCAASGFTFSSHWMKWVRQAPGKGLEWVANINQDGSEKYYVDSVKGRFTISRDNAKNSLFLQMNSLRAEDTAVYYCARDIVLMVYDMDYYYYGMDVWGQGTTVTVSS
VL: not shown
B1 was tested, and the “IC50, LDL uptake in HepG2 cells” value was 1.1 nM.
